This passage reports He/Con_2aR results from US20180155451A1 (published 2018).

T1: FcγRIIa R (extracellular domain with a His tag at the C terminus) (human, UniProt P12318 34-217)
T1 construct: extracellular domain; expressed in FreeStyle293 cells; also called FcgRIIa R; FcγRIIa type R; not shown: His tag at the C terminus
T1 sequence (looked up): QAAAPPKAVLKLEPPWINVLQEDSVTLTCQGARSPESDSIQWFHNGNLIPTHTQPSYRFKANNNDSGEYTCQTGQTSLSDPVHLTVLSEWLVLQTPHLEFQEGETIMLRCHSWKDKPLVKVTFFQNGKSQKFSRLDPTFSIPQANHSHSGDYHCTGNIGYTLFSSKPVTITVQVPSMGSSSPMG

B1: GpH7-A5/GpH7-B3 variant S337_02A/GpL16-k0 (antibody, human IgG1, kappa)
heavy 1: not shown
heavy 2: not shown
light: DIVMTQSPLSLPVTPGEPASISCQASESLVHSNRNTYLHWYLQKPGQSPQLLIYKVSNRFSGVPDRFSGSGSGTDFTLKISRVEAEDVGVYYCSQNTHVPPTFGQGTKVEIERTVAAPSVFIFPPSDEQLKSGTASVVCLLNNFYPREAKVQWKVDNALQSGNSQESVTEQDSKDSTYSLSSTLTLSKADYEKHKVYACEVTHQGLSSPVTKSFNRGEC
notes: heterodimerized; mutation in one H chain; also called He Ab
B2: GpH7-A5/GpH7-B3 variant G237_04F/GpL16-k0 (antibody, human IgG1, kappa)
heavy 1: not shown
heavy 2: not shown
light: DIVMTQSPLSLPVTPGEPASISCQASESLVHSNRNTYLHWYLQKPGQSPQLLIYKVSNRFSGVPDRFSGSGSGTDFTLKISRVEAEDVGVYYCSQNTHVPPTFGQGTKVEIERTVAAPSVFIFPPSDEQLKSGTASVVCLLNNFYPREAKVQWKVDNALQSGNSQESVTEQDSKDSTYSLSSTLTLSKADYEKHKVYACEVTHQGLSSPVTKSFNRGEC
notes: as for B1
B3: GpH7-A5/GpH7-B3 variant H268_01G/GpL16-k0 (antibody, human IgG1, kappa)
heavy 1: not shown
heavy 2: not shown
light: DIVMTQSPLSLPVTPGEPASISCQASESLVHSNRNTYLHWYLQKPGQSPQLLIYKVSNRFSGVPDRFSGSGSGTDFTLKISRVEAEDVGVYYCSQNTHVPPTFGQGTKVEIERTVAAPSVFIFPPSDEQLKSGTASVVCLLNNFYPREAKVQWKVDNALQSGNSQESVTEQDSKDSTYSLSSTLTLSKADYEKHKVYACEVTHQGLSSPVTKSFNRGEC
notes: as for B1
B4: GpH7-A5/GpH7-B3 variant I332_06M/GpL16-k0 (antibody, human IgG1, kappa)
heavy 1: not shown
heavy 2: not shown
light: DIVMTQSPLSLPVTPGEPASISCQASESLVHSNRNTYLHWYLQKPGQSPQLLIYKVSNRFSGVPDRFSGSGSGTDFTLKISRVEAEDVGVYYCSQNTHVPPTFGQGTKVEIERTVAAPSVFIFPPSDEQLKSGTASVVCLLNNFYPREAKVQWKVDNALQSGNSQESVTEQDSKDSTYSLSSTLTLSKADYEKHKVYACEVTHQGLSSPVTKSFNRGEC
notes: as for B1
B5: GpH7-A5/GpH7-B3 variant K326_04F/GpL16-k0 (antibody, human IgG1, kappa)
heavy 1: not shown
heavy 2: not shown
light: DIVMTQSPLSLPVTPGEPASISCQASESLVHSNRNTYLHWYLQKPGQSPQLLIYKVSNRFSGVPDRFSGSGSGTDFTLKISRVEAEDVGVYYCSQNTHVPPTFGQGTKVEIERTVAAPSVFIFPPSDEQLKSGTASVVCLLNNFYPREAKVQWKVDNALQSGNSQESVTEQDSKDSTYSLSSTLTLSKADYEKHKVYACEVTHQGLSSPVTKSFNRGEC
notes: as for B1
B6: GpH7-A5/GpH7-B3 variant K326_08L/GpL16-k0 (antibody, human IgG1, kappa)
heavy 1: not shown
heavy 2: not shown
light: DIVMTQSPLSLPVTPGEPASISCQASESLVHSNRNTYLHWYLQKPGQSPQLLIYKVSNRFSGVPDRFSGSGSGTDFTLKISRVEAEDVGVYYCSQNTHVPPTFGQGTKVEIERTVAAPSVFIFPPSDEQLKSGTASVVCLLNNFYPREAKVQWKVDNALQSGNSQESVTEQDSKDSTYSLSSTLTLSKADYEKHKVYACEVTHQGLSSPVTKSFNRGEC
notes: as for B1
B7: GpH7-A5/GpH7-B3 variant K326_03V/GpL16-k0 (antibody, human IgG1, kappa)
heavy 1: not shown
heavy 2: not shown
light: DIVMTQSPLSLPVTPGEPASISCQASESLVHSNRNTYLHWYLQKPGQSPQLLIYKVSNRFSGVPDRFSGSGSGTDFTLKISRVEAEDVGVYYCSQNTHVPPTFGQGTKVEIERTVAAPSVFIFPPSDEQLKSGTASVVCLLNNFYPREAKVQWKVDNALQSGNSQESVTEQDSKDSTYSLSSTLTLSKADYEKHKVYACEVTHQGLSSPVTKSFNRGEC
notes: as for B1
B8: GpH7-A5/GpH7-B3 variant K326_15Y/GpL16-k0 (antibody, human IgG1, kappa)
heavy 1: not shown
heavy 2: not shown
light: DIVMTQSPLSLPVTPGEPASISCQASESLVHSNRNTYLHWYLQKPGQSPQLLIYKVSNRFSGVPDRFSGSGSGTDFTLKISRVEAEDVGVYYCSQNTHVPPTFGQGTKVEIERTVAAPSVFIFPPSDEQLKSGTASVVCLLNNFYPREAKVQWKVDNALQSGNSQESVTEQDSKDSTYSLSSTLTLSKADYEKHKVYACEVTHQGLSSPVTKSFNRGEC
notes: as for B1
B9: GpH7-A5/GpH7-B3 variant A327_09D/GpL16-k0 (antibody, human IgG1, kappa)
heavy 1: not shown
heavy 2: not shown
light: DIVMTQSPLSLPVTPGEPASISCQASESLVHSNRNTYLHWYLQKPGQSPQLLIYKVSNRFSGVPDRFSGSGSGTDFTLKISRVEAEDVGVYYCSQNTHVPPTFGQGTKVEIERTVAAPSVFIFPPSDEQLKSGTASVVCLLNNFYPREAKVQWKVDNALQSGNSQESVTEQDSKDSTYSLSSTLTLSKADYEKHKVYACEVTHQGLSSPVTKSFNRGEC
notes: as for B1
B10: GpH7-A5/GpH7-B3 variant I336_08L/GpL16-k0 (antibody, human IgG1, kappa)
heavy 1: not shown
heavy 2: not shown
light: DIVMTQSPLSLPVTPGEPASISCQASESLVHSNRNTYLHWYLQKPGQSPQLLIYKVSNRFSGVPDRFSGSGSGTDFTLKISRVEAEDVGVYYCSQNTHVPPTFGQGTKVEIERTVAAPSVFIFPPSDEQLKSGTASVVCLLNNFYPREAKVQWKVDNALQSGNSQESVTEQDSKDSTYSLSSTLTLSKADYEKHKVYACEVTHQGLSSPVTKSFNRGEC
notes: as for B1
B11: GpH7-A5/GpH7-B3 variant A330_01G/GpL16-k0 (antibody, human IgG1, kappa)
heavy 1: not shown
heavy 2: not shown
light: DIVMTQSPLSLPVTPGEPASISCQASESLVHSNRNTYLHWYLQKPGQSPQLLIYKVSNRFSGVPDRFSGSGSGTDFTLKISRVEAEDVGVYYCSQNTHVPPTFGQGTKVEIERTVAAPSVFIFPPSDEQLKSGTASVVCLLNNFYPREAKVQWKVDNALQSGNSQESVTEQDSKDSTYSLSSTLTLSKADYEKHKVYACEVTHQGLSSPVTKSFNRGEC
notes: as for B1
B12: GpH7-A5/GpH7-B3 variant G237_20W/GpL16-k0 (antibody, human IgG1, kappa)
heavy 1: not shown
heavy 2: not shown
light: DIVMTQSPLSLPVTPGEPASISCQASESLVHSNRNTYLHWYLQKPGQSPQLLIYKVSNRFSGVPDRFSGSGSGTDFTLKISRVEAEDVGVYYCSQNTHVPPTFGQGTKVEIERTVAAPSVFIFPPSDEQLKSGTASVVCLLNNFYPREAKVQWKVDNALQSGNSQESVTEQDSKDSTYSLSSTLTLSKADYEKHKVYACEVTHQGLSSPVTKSFNRGEC
notes: as for B1
B13: GpH7-A5/GpH7-B3 variant K326_20W/GpL16-k0 (antibody, human IgG1, kappa)
heavy 1: not shown
heavy 2: not shown
light: DIVMTQSPLSLPVTPGEPASISCQASESLVHSNRNTYLHWYLQKPGQSPQLLIYKVSNRFSGVPDRFSGSGSGTDFTLKISRVEAEDVGVYYCSQNTHVPPTFGQGTKVEIERTVAAPSVFIFPPSDEQLKSGTASVVCLLNNFYPREAKVQWKVDNALQSGNSQESVTEQDSKDSTYSLSSTLTLSKADYEKHKVYACEVTHQGLSSPVTKSFNRGEC
notes: as for B1
B14: GpH7-A5/GpH7-B3 variant K326_07I/GpL16-k0 (antibody, human IgG1, kappa)
heavy 1: not shown
heavy 2: not shown
light: DIVMTQSPLSLPVTPGEPASISCQASESLVHSNRNTYLHWYLQKPGQSPQLLIYKVSNRFSGVPDRFSGSGSGTDFTLKISRVEAEDVGVYYCSQNTHVPPTFGQGTKVEIERTVAAPSVFIFPPSDEQLKSGTASVVCLLNNFYPREAKVQWKVDNALQSGNSQESVTEQDSKDSTYSLSSTLTLSKADYEKHKVYACEVTHQGLSSPVTKSFNRGEC
notes: as for B1
B15: GpH7-A5/GpH7-B3 variant A330_12R/GpL16-k0 (antibody, human IgG1, kappa)
heavy 1: not shown
heavy 2: not shown
light: DIVMTQSPLSLPVTPGEPASISCQASESLVHSNRNTYLHWYLQKPGQSPQLLIYKVSNRFSGVPDRFSGSGSGTDFTLKISRVEAEDVGVYYCSQNTHVPPTFGQGTKVEIERTVAAPSVFIFPPSDEQLKSGTASVVCLLNNFYPREAKVQWKVDNALQSGNSQESVTEQDSKDSTYSLSSTLTLSKADYEKHKVYACEVTHQGLSSPVTKSFNRGEC
notes: as for B1
B16: GpH7-A5/GpH7-B3 variant A327_10E/GpL16-k0 (antibody, human IgG1, kappa)
heavy 1: not shown
heavy 2: not shown
light: DIVMTQSPLSLPVTPGEPASISCQASESLVHSNRNTYLHWYLQKPGQSPQLLIYKVSNRFSGVPDRFSGSGSGTDFTLKISRVEAEDVGVYYCSQNTHVPPTFGQGTKVEIERTVAAPSVFIFPPSDEQLKSGTASVVCLLNNFYPREAKVQWKVDNALQSGNSQESVTEQDSKDSTYSLSSTLTLSKADYEKHKVYACEVTHQGLSSPVTKSFNRGEC
notes: as for B1

This experiment addresses T1, FcγRIIa R (extracellular domain with a …). Nature of the experiment: SPR Biacore, relative binding. In general terms: SPR reads the build-up and loss of mass on a sensor chip optically.
In the case of B1, the He/Con_2aR was 105 % of GpH7-A5/GpH7-B3/GpL16-k0 (=100).
Take B2: the He/Con_2aR was 126 % of GpH7-A5/GpH7-B3/GpL16-k0 (=100).
For B3, the He/Con_2aR is 124 % of GpH7-A5/GpH7-B3/GpL16-k0 (=100).
Turning to B4, the He/Con_2aR is 109 % of GpH7-A5/GpH7-B3/GpL16-k0 (=100).
Take B5: the He/Con_2aR was 135 % of GpH7-A5/GpH7-B3/GpL16-k0 (=100).
Consider B6, for which the He/Con_2aR was 137 % of GpH7-A5/GpH7-B3/GpL16-k0 (=100).
The same measure for B7: 141 % of GpH7-A5/GpH7-B3/GpL16-k0 (=100).
Consider B8, for which the He/Con_2aR was 136 % of GpH7-A5/GpH7-B3/GpL16-k0 (=100).
With B9, the He/Con_2aR was 124 % of GpH7-A5/GpH7-B3/GpL16-k0 (=100).
On to B10, for which the He/Con_2aR is 110 % of GpH7-A5/GpH7-B3/GpL16-k0 (=100).
As for B11, the He/Con_2aR was 109 % of GpH7-A5/GpH7-B3/GpL16-k0 (=100).
Turning to B12, the He/Con_2aR was 138 % of GpH7-A5/GpH7-B3/GpL16-k0 (=100).
B13: the He/Con_2aR is 131 % of GpH7-A5/GpH7-B3/GpL16-k0 (=100).
With B14, the He/Con_2aR is 147 % of GpH7-A5/GpH7-B3/GpL16-k0 (=100).
Then B15, with 104 % of GpH7-A5/GpH7-B3/GpL16-k0 (=100).
Regarding B16, the He/Con_2aR was 110 % of GpH7-A5/GpH7-B3/GpL16-k0 (=100).
